From patent US20140112930A1 (published 2014) come the findings set out here.

The target of assay [1] is T1, human bow-Ang-2 tetrameric construct (hBA2) (human).
T1 construct: also called human BA2; hBA2-hIgG1
Nature of the assay: SPR, captured Ab. A general note: Surface plasmon resonance follows binding to a sensor surface in real time, without labels.

For assay [2], the target named is T2, Monomeric hAng-2FD (human, UniProt O15123 282-496).
T2 construct: also called fibrinogen-like domain of human Ang2; Human Ang-2FD
T2 sequence: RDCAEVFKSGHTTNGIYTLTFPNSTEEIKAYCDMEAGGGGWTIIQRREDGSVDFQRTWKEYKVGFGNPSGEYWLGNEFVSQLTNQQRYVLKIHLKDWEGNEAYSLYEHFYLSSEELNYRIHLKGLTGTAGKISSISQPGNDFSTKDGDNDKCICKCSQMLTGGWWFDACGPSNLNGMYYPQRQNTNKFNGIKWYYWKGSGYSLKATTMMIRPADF
Description: SPR, captured Ab.

Assay [3] addresses T3, wild-type human Ang-2 (hAng-2-WT) (human, UniProt O15123 19-496).
T3 construct: called full-length wild-type; also called Full-length wild-type human Ang-2
T3 sequence: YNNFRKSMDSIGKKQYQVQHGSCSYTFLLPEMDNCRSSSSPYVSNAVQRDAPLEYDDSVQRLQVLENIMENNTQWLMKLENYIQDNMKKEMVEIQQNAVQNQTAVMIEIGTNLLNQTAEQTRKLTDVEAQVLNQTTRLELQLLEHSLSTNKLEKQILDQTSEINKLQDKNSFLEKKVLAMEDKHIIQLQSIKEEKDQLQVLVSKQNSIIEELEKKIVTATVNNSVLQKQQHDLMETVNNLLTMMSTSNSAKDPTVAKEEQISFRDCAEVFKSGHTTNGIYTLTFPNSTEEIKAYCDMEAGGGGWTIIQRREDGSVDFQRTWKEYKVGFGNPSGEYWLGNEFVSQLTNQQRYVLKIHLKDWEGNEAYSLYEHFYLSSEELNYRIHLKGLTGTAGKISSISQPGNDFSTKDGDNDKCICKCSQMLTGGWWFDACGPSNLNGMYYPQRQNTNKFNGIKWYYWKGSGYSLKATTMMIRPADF
Description: SPR, captured Ab.

Assay [4] concerns the target T4, Dimeric Human Ang-2FD conjugated to human IgG1 (human).
T4 construct: also called Human Ang-2FD-hFc; hAng-2FD-hFc
Description: SPR, captured Ab, RT. An outline of the steps:
(§1)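 Antibody captured on amine-coupled goat anti-mouse IgG, anti-human κ or anti-human IgG polyclonal surfaces on a CM5 chip; antigen binding and dissociation followed in real time at room temperature. KD and complex dissociation half-life derived by kinetic analysis.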

Assay [5] deals with T5, Dimeric Mouse Ang-2FD conjugated to human IgG1 (mouse (Mus musculus); human).
T5 construct: also called Mouse Ang-2FD-hFc
T5 sequence (chain, as listed by the source limits assumed): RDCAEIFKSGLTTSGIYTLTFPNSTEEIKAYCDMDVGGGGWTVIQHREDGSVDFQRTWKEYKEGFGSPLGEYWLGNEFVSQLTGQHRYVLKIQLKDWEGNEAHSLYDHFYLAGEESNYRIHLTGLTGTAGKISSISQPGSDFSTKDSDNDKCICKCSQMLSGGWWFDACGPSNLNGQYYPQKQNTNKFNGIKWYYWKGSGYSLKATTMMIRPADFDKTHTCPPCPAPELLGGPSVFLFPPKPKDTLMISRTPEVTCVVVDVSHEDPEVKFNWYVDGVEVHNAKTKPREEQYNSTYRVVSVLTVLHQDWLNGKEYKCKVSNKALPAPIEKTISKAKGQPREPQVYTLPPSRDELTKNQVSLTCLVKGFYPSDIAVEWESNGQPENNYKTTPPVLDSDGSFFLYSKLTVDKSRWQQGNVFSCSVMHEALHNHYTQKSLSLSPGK
Nature of the assay: SPR, captured Ab, RT. An outline of the steps: as §1

Assay [6] concerns the target T6, Dimeric Monkey Ang-2FD conjugated to human IgG1 (monkey (Macca fascicularis); human).
T6 construct: also called Monkey Ang-2FD-hFc
Description: SPR, captured Ab, RT. An outline of the steps: as §1

The target of assay [7] is T5, Dimeric Mouse Ang-2FD conjugated to …. Nature of the assay: SPR, captured Ab, 25°C. The procedure:
(§2) Each selected antibody or control construct was captured at a flow rate of 40 μL/min for 1 minute on a goat anti-human kappa polyclonal antibody surface created through direct chemical coupling to a BIACORE™ chip to form a captured antibody surface.

The target of assay [8] is T6, Dimeric Monkey Ang-2FD conjugated to …. Description: SPR, captured Ab, 25°C. The protocol: as §2
Assay [9] addresses T7, Dimeric Human Ang-2FD-mFc (human, UniProt O15123 282-496).
T7 construct: also called hAng-2FD-mFc; hAng2-FD-mFc; not shown: mouse Fc (mFc)
T7 sequence: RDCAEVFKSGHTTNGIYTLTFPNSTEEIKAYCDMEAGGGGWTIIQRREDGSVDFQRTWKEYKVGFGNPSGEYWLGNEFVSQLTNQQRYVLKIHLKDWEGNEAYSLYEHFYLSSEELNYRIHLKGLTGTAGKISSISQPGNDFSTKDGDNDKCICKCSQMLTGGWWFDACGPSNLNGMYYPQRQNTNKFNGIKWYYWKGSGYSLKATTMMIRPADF
Description: SPR, captured Ab, 25°C. The procedure:
as §2

Assay [10] addresses T5, Dimeric Mouse Ang-2FD conjugated to …. Description: SPR, captured Ab, 37°C. The procedure: as §2
Assay [11] concerns the target T6, Dimeric Monkey Ang-2FD conjugated to …. Nature of the assay: SPR, captured Ab, 37°C. The procedure: as §2
Assay [12] concerns the target T7, Dimeric Human Ang-2FD-mFc. Nature of the assay: SPR, captured Ab, 37°C. The procedure: as §2
For assay [13], the target named is T2, Monomeric hAng-2FD. Description: SPR, captured Ab, 25°C. The procedure:
(§3) Each selected antibody or control construct was captured at a flow rate of 40 μL/min for 1 minute on a goat anti-human IgG polyclonal antibody surface created through direct chemical coupling to a BIACORE™ chip to form a captured antibody surface.

The target in assay [14] is T3, wild-type human Ang-2 (hAng-2-WT). Description: SPR, captured Ab, 25°C. The protocol:
as §3

Assay [15] addresses T8, Full-length wild-type human Ang-1 (hAng-1-WT) (human, UniProt Q15389 20-498, limits assumed).
T8 construct: also called recombinant human Ang-1 (R&D Systems)
T8 sequence (looked up): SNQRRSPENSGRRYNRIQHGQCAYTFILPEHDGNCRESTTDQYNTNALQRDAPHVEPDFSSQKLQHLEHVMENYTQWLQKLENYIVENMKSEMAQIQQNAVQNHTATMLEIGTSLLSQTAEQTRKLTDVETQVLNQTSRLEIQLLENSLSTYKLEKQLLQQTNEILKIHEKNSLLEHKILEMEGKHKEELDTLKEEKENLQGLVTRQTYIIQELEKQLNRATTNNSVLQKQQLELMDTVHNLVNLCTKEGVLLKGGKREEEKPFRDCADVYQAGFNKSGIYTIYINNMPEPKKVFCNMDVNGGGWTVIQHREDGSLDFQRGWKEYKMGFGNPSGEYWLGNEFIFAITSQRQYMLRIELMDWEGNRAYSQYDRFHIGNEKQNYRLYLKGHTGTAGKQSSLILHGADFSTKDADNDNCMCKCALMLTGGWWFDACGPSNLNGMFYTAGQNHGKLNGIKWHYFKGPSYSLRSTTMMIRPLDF
Description: SPR, captured Ab, 25°C. The procedure:
as §3

Assay [16] has as its target T2, Monomeric hAng-2FD. Nature of the assay: SPR, captured Ab, 37°C. The protocol: as §3
Assay [17] has as its target T3, wild-type human Ang-2 (hAng-2-WT). Description: SPR, captured Ab, 37°C. The procedure: as §3
For assay [18], the target named is T8, Full-length wild-type human Ang-1 …. Nature of the assay: SPR, captured Ab, 37°C. The procedure: as §3
Another assay concerns the target T9, Human Ang-2FD-hFc (human).
T9 construct: also called dimeric human Ang-2FD; human Ang-2FD protein conjugated to human IgG
Description: blocking ELISA, 16.67 nM antibody, Ang-2FD-hFc to coated hTie-2-mFc. In general terms: An ELISA detects its analyte on a solid surface through an enzyme-linked reagent.

A further assay concerns the target T10, Mouse Ang-2FD-hFc (mouse (Mus musculus)).
T10 construct: also called dimeric mouse Ang-2FD
The assay is described as above.

The target in the next assay is T11, Biotin-hBA2 (human, biotinylated (sites not given)).
T11 construct: hBA2 consists of two dimers; also called biotinylated hBA2; human bow-Ang2
T11 sequence (chain, as listed by the source limits assumed): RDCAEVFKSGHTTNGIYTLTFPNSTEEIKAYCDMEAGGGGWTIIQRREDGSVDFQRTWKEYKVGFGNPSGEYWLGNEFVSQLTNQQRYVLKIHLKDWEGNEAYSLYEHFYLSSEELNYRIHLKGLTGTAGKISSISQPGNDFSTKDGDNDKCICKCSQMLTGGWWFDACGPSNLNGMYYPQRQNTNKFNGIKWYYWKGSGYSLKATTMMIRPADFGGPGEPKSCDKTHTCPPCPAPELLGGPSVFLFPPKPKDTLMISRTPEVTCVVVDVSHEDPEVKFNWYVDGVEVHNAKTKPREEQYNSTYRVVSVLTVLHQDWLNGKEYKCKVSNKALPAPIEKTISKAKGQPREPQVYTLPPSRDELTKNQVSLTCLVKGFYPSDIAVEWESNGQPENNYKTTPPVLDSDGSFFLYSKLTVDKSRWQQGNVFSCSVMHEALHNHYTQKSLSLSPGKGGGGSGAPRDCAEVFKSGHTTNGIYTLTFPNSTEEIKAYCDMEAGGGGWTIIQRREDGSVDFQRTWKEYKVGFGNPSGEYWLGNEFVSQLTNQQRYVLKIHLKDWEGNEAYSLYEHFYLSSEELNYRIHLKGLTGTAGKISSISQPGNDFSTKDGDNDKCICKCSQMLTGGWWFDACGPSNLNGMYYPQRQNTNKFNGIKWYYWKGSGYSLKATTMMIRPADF
Nature of the assay: blocking ELISA, biotin-hBA2 to hTie-2; NB = no blocking observed at 5 nM concentration. The protocol:
The plate was then blocked with PBS (Irvine Scientific, Santa Ana, Calif.) containing 0.5% BSA (Sigma-Aldrich Corp., St. Louis, Mo.) for one hour at room temperature. […] Human, mouse or monkey Ang-2FD protein conjugated to human IgG (Ang-2FD-hFc) were added to final concentrations of 2 nM, 8 nM, or 2 nM respectively and incubated for one hour at room temperature. The antibody/Ang-2FD-Fc mixture was then added to the plate containing hTie-2-mFc and incubated for one hour at room temperature. Detection of Ang-2FD-hFc bound to hTie-2-mFc protein was determined with Horse-Radish Peroxidase (HRP) conjugated to a-human IgG antibody (Jackson Immuno Research Lab, West Grove, Pa.) and developed by standard colorimetric response using tetramethylbenzidine (TMB) substrate (BD Biosciences, San Jose, Calif.). Absorbance was read at OD₄₅₀ for 0.1 sec.
For this experiment, human Tie-2 conjugated to a histidine tag (hTie-2-His; SEQ ID NO:526) was used in a similar fashion to the hTie-2-mFc described above. Antibody concentrations from 5 nM were serially diluted three-fold. […] An average IC₅₀ value for each antibody was calculated based on two separate experiments.

T6 sequence (chain, as listed by the source limits assumed): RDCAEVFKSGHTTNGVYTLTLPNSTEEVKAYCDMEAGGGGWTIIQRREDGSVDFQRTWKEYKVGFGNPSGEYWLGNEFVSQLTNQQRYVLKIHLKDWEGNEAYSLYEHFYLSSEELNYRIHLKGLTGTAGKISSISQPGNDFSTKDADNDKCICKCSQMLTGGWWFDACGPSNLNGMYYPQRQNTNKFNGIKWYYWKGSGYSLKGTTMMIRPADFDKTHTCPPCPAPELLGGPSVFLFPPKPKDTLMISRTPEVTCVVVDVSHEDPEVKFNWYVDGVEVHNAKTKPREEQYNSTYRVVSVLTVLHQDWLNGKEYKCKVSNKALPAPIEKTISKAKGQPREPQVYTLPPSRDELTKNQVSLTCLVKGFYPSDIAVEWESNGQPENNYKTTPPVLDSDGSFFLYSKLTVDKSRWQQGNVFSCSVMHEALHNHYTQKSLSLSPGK
T4 sequence (chain, as listed by the source limits assumed): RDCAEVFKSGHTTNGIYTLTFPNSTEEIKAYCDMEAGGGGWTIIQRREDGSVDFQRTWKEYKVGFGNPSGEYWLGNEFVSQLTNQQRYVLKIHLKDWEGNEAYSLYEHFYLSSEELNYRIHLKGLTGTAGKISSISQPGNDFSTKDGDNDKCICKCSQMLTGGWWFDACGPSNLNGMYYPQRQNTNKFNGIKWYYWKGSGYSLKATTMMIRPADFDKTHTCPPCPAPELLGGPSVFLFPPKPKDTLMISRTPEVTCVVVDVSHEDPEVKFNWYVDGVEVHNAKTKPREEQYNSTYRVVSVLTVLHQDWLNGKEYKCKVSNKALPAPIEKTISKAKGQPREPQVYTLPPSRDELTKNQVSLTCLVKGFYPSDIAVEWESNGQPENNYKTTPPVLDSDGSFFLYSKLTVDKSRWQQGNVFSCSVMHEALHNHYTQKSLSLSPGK

B1: H1H744N (antibody, V domains shown)
VH: QVQLVQSGVEVKKPGASVKVSCKTSGYTFSNNGFSWVRQAPGQGLEWLGWISGYNGNTNYAQKFQGRVTMTTDTSTSTAYMELRTLRSDDTAVYYCARDQDYSNFHWLDPWGQGTLVTVAS
VL: DIQMTQSPSSVSASVGDRVIITCRASQGLSSWLAWYQQKPGTAPKLLIHSASSLQTGVPSRFSGSGSGTEFALTINSLQPEDFGTYYCQQANSFPLTFGGGTRVEIK
One may read the Kd as the equilibrium constant for the complex coming apart. Turning to B1, the Kd in [1] stood at 0.0172 nM; with Monomeric hAng-2FD [2] it was 1.02 nM; in [3], 0.0308 nM; in assay [4], 0.114 nM; in assay [6], 0.346 nM; in assay [7], 0.385 nM. For the same molecule, the Kd in [8] is 0.244 nM; in assay [9] it was 0.116 nM; in assay [10], 0.215 nM; in [11], 0.32 nM; in assay [12] it was 0.105 nM; with Monomeric hAng-2FD [13], 0.424 nM. Besides, the Kd in [14] was 0.0335 nM; in [15] it was 0.093 nM; in the assay with Monomeric hAng-2FD [16], 1.42 nM; in [17], 0.347 nM; in assay [18] it was 0.0312 nM. The T1/2 is 442 min in assay [1]; 42.1 min with Monomeric hAng-2FD [2]; 837 min in [3]; 127 min in assay [4]; 115 min in assay [5]; 164 min in assay [6]. Further, the T1/2 stood at 33 min in assay [7]; 24 min in assay [8]; 23 min in assay [9]; 26 min in [10]; 11 min in assay [11]; 18 min in assay [12]. Also, the T ½ with Monomeric hAng-2FD [13] came out at 93 min; in assay [14], 450 min; in assay [15] it was 303 min; with Monomeric hAng-2FD [16], 21 min; in [17] it was 48 min; in assay [18], 222 min.

B2: H1H693P (antibody, human IgG1, V domains shown)
VH: EVQLVESGGGLVQPGESLRLSCAASGFTFSSYAMSWVRQGPGKGLEWVSSISGSGGTTYYADSVEGRFTISRDNSKNTLYLHMNSLRAEDTAVYYCAKDFLDYSTYLAFDLWGQGTMVTVSS
VL: DIQMTQSPSSVSASVGDRVTITCRASQGISSWLAWYQQKPGKAPKLLIYAASSLQSGVPSRFSGSGSGTDFTLTISSLQPEDFATYYCQQANSFPRTFGQGTKVEIK
notes: Human IgG1
A word on the IC50: it is the point on the concentration scale where inhibition reaches its midpoint. Turning to B2, the entries for the “Percent Blocking of Ang-2FD Binding to Tie-2” value with Human Ang-2FD-hFc and in the assay with Mouse Ang-2FD-hFc were 73.9% and 63.6%, respectively. The IC50 in the assay with Biotin-hBA2 is above 5 nM.
